Reference: US20220348674A1 (APOLLOMICS, published 2022)
Residue numbers refer to the chain shown, from its start.

B1: 196 rabbit-human chimeric anti-CD40 antibody (antibody, V domains shown)
VH: QSVEESGGRLVTPGTPLTLTCTVSGFSLSAYAIHWVRQAPGKGLEYIGIIDAGGNIVYATWALGRFTISKTSTTVDLKITSPTTEDTATYFCGRGLSSYSNSAMDLWGPGTLVTVSS
VL: DVVMTQTPASVSEPVGGTVTMKCQASQNIYTYLAWYQQKPGRPPKLLIYQASTLASGVSSRFSGSGSGTEFTLTISDLECADAATYYCQSTAGNAYNAFGGGTEVVVK
notes: tested as cell culture supernatant
B2: 5F9 rabbit-human chimeric anti-CD40 antibody (antibody, V domains shown)
VH: QSVEESGGRLVTPGTPLTLTCTASGFSLIGYVMGWFRQAPGKGLEYIGWISFGGDPYYASWVKGRFTISKTSTTVDLKMTSLTTEDTATYFCARSTYGDIWGPGTLVTVSS
VL: DIVMTQTPASVEAAVGGTVTIKCQASQSISSRLAWYQLKPGQPPKLLIYSASTLASGVPSRFKGSGSGTEFTLTISDLECADAATYYCQNHGYATSESYTNTFGGGTEVVVK
notes: tested as cell culture supernatant in the ELISA
B3: 7A6 rabbit-human chimeric anti-CD40 antibody (antibody, V domains shown)
VH: QSVEESGGRLVTPGTPLTLACTVSGIDLSTWTMSWVRQAPGKGLEWIGIINSDSNTYYASWAKGRFTISKASTTVDLKMTSLTTEDTATYFCARGVGGYSSGPDYLDIWGPGTLVTVSS
VL: DIVMTQTPASVEAAVGGTVTIKCQASQSIYRSLAWYQQKPGQPPKLLMYHASDLASGVPSRFKGSGSGTEYTLTISDLECADAATYYCQSYYYSGINTYGNAFGGGTEVVVK
notes: as for B1
B4: 7C11 rabbit-human chimeric anti-CD40 antibody (antibody, V domains shown)
VH: QSLEESGGRLVTPGGSLTLTCTVSGIDLSTNGMGWVRQGPGKGLEWIGTIRVTAGTDYANWAKGRFTISKTSSTTVDLKMTSLTTEDTATYFCARGHANNDAYVYFNLWGQGTLVTVSS
VL: AFELTQTPASVEAGVGGTVTIKCQASQSIDRYLAWYQQKSGQPPKLLISYTSKLASGVPSRFKGSGSGTEFTLTISDLECADAATYYCQSYFTSDDANSFGGGTEVVVK
notes: as for B1
B5: 8C10 rabbit-human chimeric anti-CD40 antibody (antibody, V domains shown)
VH: B4 VH with E4A, N31D, A54G, Y58F, N60T, S69A
VL: AFELTQTPASVEAGVGGTVTIKCQASQSIDRYLAWYQQKPGQPPKLLMAAAANLASGVPSRFKGSRSGTEFTLTISDLECADGATYYCQSYFTSDDGNTFGGGTEVVVK
notes: as for B1
B6: 7G6 rabbit-human chimeric anti-CD40 antibody (antibody, V domains shown)
VH: B4 VH with A54G, N60T, L83P
VL: B4 VL with S40P, K53T, A55T, S99T
notes: as for B1
B7: 194 rabbit-human chimeric anti-CD40 antibody (antibody, V domains shown)
VH: QSVEESGGRLVTPGTPLTLTCTVSGFSLSSYAMSWVRQAPGKGLEYIGVMNTGGSAHYATWAKGRFTISKTSTTVDLKITSPTTADTATYFCARGYIGSPNLWGPGTLVTVSS
VL: AVLTQTPSPVSAAVGGTVSISCQSSKSVYYNNYLSWFQQKPGQPPKQLIYLASTLASGVPSRFKGSGSGTEFTLTISDVQCADAATYYCAGGYTDSDDAFGGGTEVVVK
notes: as for B1
B8: 6C2 rabbit-human chimeric anti-CD40 antibody (antibody, V domains shown)
VH: QSVEESGGRLVTPGTPLTLTCTASGFSLSTYYMIWVRQAPGKGLDYIGIISSNGNAYYATWAKGRFTISKTSTTVDLKMTSPTTEDTATYFCARAASIANSYYFNVWGPGTLVTVSS
VL: AVLTQTPSPVSAAVGGTVSISCQSSQSVRDNNWLSWFQQKPGHPPKLLIYGASNLESGVPSRFSGSGSGTEFTLTISDVQCDDAATYYCQGGFSTYSDNSFGGGTEVVVK
notes: as for B1
B9: 1D3 rabbit-human chimeric anti-CD40 antibody (antibody, V domains shown)
VH: QSLEESGGRLVTPGTPLTLTCTASGFSLSNYHMCWVRQAPGKGLEWIGYNSYGGSAYYASWAKGRFTISKTSTTVDLKITRPTTEDTATYFCARAYLDYNGDMGFALWGPGTLVTVSS
VL: EVVMTQTPSSVSAAVGGTVTFKCQASQSISSYLSWYQQKPGQPPKLLIYRASTLESGVPSRFKGSGSGTQFTLTISDLECADAATYYCQTNYYDSGNTYGTFGGGTEVVVK
notes: as for B1
B10: 2C10 rabbit-human chimeric anti-CD40 antibody (antibody, V domains shown)
VH: QSLEESGGRLVTPGTPLTLTCTASGFTMNRYRMSWVRQAPGKGLEWIGTINNDAGASYASWVNGRFTISKTSSTTVDLKITGPTTEDTATYFCARAGDNIYVDLYNLWGPGTLVTVSS
VL: DVVMTQTPASVSGAVGGTVTIKCQASENIFSYLAWYQQKPGQPPKLLFYGASNLASGVPSRFSGSRSGTEFTLTISDLECADAATYYCQFTNYGSSDIRSPFGGGTEVVVK
notes: as for B1
B11: 5D10 rabbit-human chimeric anti-CD40 antibody (antibody, V domains shown)
VH: QSVEESGGRLVTPGTPLTLTCTVSGFSFYDHTMIWVRQAPGKGLEYIGFINIGGRAYYASWAKGRFTISRTSTTVDLEMTSLTTEDTATYFCARGDTHGYSYPEIWGPGTLVTVSS
VL: DIVMTQTPASVEAGVGGTVTIKCQASQTIYSYLSWYQQKPGQPPKLLIYRASTLASGVPSRFRGSGSGTEFTLTISDLECADAAAYYCQNYYDSTSSNAFGKGTEVVVK
notes: as for B1
B12: 8C6 rabbit-human chimeric anti-CD40 antibody (antibody, V domains shown)
VH: QSVEESGGRLVTPGTPLTLTCTASGFTITSYYIIWVRQAPGEGLEYIGIIDTGGSADYASWAKGRFTISRTSTTVDLKMTSLTTEDTATYFCARADVGSVGSIWGPGTLVTVSS
VL: DVAMTQTPSSVSAAVGGTVTIECQASQNIYTNLAWYQQKPGQRPKLLIYYASTLASGVPSRFSGSGSGTEFSLTISDLECADAATYYCQCTYIKWRHVCGFGGGTEVVVK
notes: as for B1
B13: 2E11 rabbit-human chimeric anti-CD40 antibody (antibody, V domains shown)
VH: QSLEESGGRLVTPGTPLTLTCTVSGIDLSRYAMGWVRQAPGKGLEFIGIITSNSGDTYYATWAKGRFTISKTSTTVDLKITSPTTEDTATYFCVRGYIGAPNLWGPGTLVTVSS
VL: AVLTQTPSPVSAAVGGTVSISCQSSKTVYYNNYLSWFQQKPGQPPKELIYYASTLSSGVPSRFKGSGSGTQFTLTISDVQCDDAATYYCAGGYNSDSDNTFGGGTEVVVK
notes: as for B2
B14: 7D2 rabbit-human chimeric anti-CD40 antibody (antibody, V domains shown)
VH: QSVEESGGRLVTPGTPLTLTCTVSGFSLNNYYMGWVRQAPGKGLEYIGWITSGRIAAYANWAKGRFTISKTSTTVDLKITSPTIGDTATHFCATTTTSDAYFFPRLGLWGQGTLVTVSS
VL: AVLTQTPSPVSAAVEGTVTINCQSSQSVDNNRLSWFQQKPGQPPKLLIYDASTLASGVPPRFKGSGSGTQFTLTISDVQCDDAATYYCAGGYSFPSENAFGGGTEVVVK
notes: as for B1
B15: 197 rabbit-human chimeric anti-CD40 antibody (antibody, V domains shown)
VH: QEQLKESGGGLVTPGTALTLTCTASGSDISSYAMNWVRQAPGKGLEYIGVITSSGTIYYANWATGRFTISKASSTTVDLKTTRLTTEDTATYFCARGITGAVTTGLSLWGPGTLVTVSS
VL: DVVMTQTPPSVSEPVGGTVTIKCQASQNIYNNLAWYQQTPGQPPKLLGYAASNLASGVSSRFSGSGYGTEFTLTISDLECADAATYYCLGGYYGNNVGNTFGGGTEVVVK
notes: as for B1
B16: 7H11 rabbit-human chimeric anti-CD40 antibody (antibody, V domains shown)
VH: QSVEESGGRLVTPGTPLTLTCTVSGIDFSKYWMAWVRQAPGEGLEYIGILSTTGSTYYASWAKGRFTISKTSTTVDLKITSLTTEDTATYFCARGNYIGNGYTWDIWGPGTLVTVSS
VL: DPVLTQTPSSASEPVGGTVTIKCQASQSIGSYLAWYQQKPGQPPKLLIYSPSTLASGVSSRFKGSRSGTEFTLTISDLECADAATYYCQSTAVGITFGGGTEVVVK
notes: as for B1
B17: 198 rabbit-human chimeric anti-CD40 antibody (antibody, V domains shown)
VH: QSVKESEGGLFKPTDTLTLTCTVSGFSLGSYTMAWVRQAPGNGLEYIGTIDSSGSADYASWAQSRSTITRNTNLNTVTLKMTSLTAADTATYFCARPTNYEYTWALNIWGPGTLVTVSS
VL: DVVMTQTPASVSEPVGGTVTIKCQASQTIYSYLAWYQQKPGQPPKLLIYGASKLASGVPSRFSGSRSGTEFTLTISDLECADAATYYCQCTGYDSAYVYNDFGGGTEVVVK
notes: as for B1
B18: 192 rabbit-human chimeric anti-CD40 antibody (antibody, V domains shown)
VH: QSVEESGGRLVTPGTPLTLTCTVSGFSLSSYAMNWVRQAPGKGLEYTGMIATGGKTFYAGWAEGRFTISKTSTTVDLHIASLTTEDTATYYCARGYVGDIYFGFWGPGTLVTVSS
VL: AVLTQTPSPVSAGVGGTVTISCQSSKSVYYNTHLSWFQQKPGQPPKLLIYRASTLASGVPSRFKGSGSGTQFTLTISDVQCDDAATYYCAGGYANDVDNGFGGGTEVVVK
notes: as for B1
B19: 195 rabbit-human chimeric anti-CD40 antibody (antibody, V domains shown)
VH: B18 VH with T47I
VL: B18 VL with S35P
notes: as for B1
B20: 6E1 rabbit-human chimeric anti-CD40 antibody (antibody, V domains shown)
VH: QSVEESGGRLVTPGTPLTLTCTVSGFSLSSYAMTWVRQAPGKGLEWLGIIDTIGSTYYASWAKGRFTISKTSTTVDLKITSPTTEDTATYFCVRDYIGSTSGKKLWGRGTLVTVSS
VL: AVLTQTPSSVEAAVGGTVSISCQSSKSVYYKNWLAWYQQKPGQPPKLLIYGASTLASGVPSRFKGSGSGAQFTLTISDVQCDDAATYYCAGGYSSDSDTGFGGGTEVVVK
notes: as for B1
B21: 3B12 rabbit-human chimeric anti-CD40 antibody (antibody, V domains shown)
VH: QSLEESGGRLVTPGTPLTLTCTVSGIDLSSYAMGWVRQAPGKGLEYIGVIASNSGISYYATWAEGRFTISKASTTVDLKITSPTTEDTATYFCVRGYIGDGALWGPGTLVTVSS
VL: B20 VL with E11S, S19T, S21N, S27T, K31N, G51R, A70T, A85T, Y93F, G100T
notes: as for B1
B22: 6H9 rabbit-human chimeric anti-CD40 antibody (antibody, V domains shown)
VH: B21 VH
VL: B20 VL with E11S, S19T, S21N, S27T, K31N, G51R, A70T, A85T, Y93F, G100T
notes: as for B1
B23: 2B8 rabbit-human chimeric anti-CD40 antibody (antibody, V domains shown)
VH: B21 VH
VL: B20 VL with E11S, S19N, S21G, K31N, G51R, A70T, D82A, A85T, G100T
notes: as for B1
B24: 6G8 rabbit-human chimeric anti-CD40 antibody (antibody, V domains shown)
VH: QSVEESGGRLVTPGTPLTLTCTASGFSLSTYYMTWVRQAPGKGLEAIGYINTGGSTYYASRAKGRFTISKTSTTVDLKMTSPTTEDTATYFCARADASEHNYNGLNIWGPGTLVTVSS
VL: DIVMTQTPASVSEPVGGTVTIKCQASESISSNLAWYQQKPGQPPKFLIYRASTLASGVPSRFKGSGFGTQFTLTISDLECADAATYYCQSNYGSISSSYGNAFGGGTEVVVK
notes: as for B1

The binders below were run against T1, purified recombinant human CD40 protein (human, UniProt P25942 21-193) (assay: ELISA on coated recombinant human CD40; chimeric antibody supernatant).
T1 construct: also called recombinant CD40
Protocol: ELISA plate was coated with purified recombinant CD40 protein in coating buffer at lug/ml overnight. After washed for 3 times, the plate was blocked with 1% BSA, and then cell culture supernatants containing rabbit-human chimeric CD40 antibodies were added to the plate. For detection of the antibody binding to CD40 protein, goat anti-human Fc polyclonal antibody conjugated to alkaline phosphatase was used.

T1 sequence (P25942 21-193 limits assumed): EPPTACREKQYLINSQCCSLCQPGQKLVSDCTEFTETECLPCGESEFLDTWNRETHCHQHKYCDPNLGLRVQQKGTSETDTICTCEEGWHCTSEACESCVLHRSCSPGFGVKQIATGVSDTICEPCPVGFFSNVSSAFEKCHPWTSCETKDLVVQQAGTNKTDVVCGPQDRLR

OD405 | Binder
1.92 OD405 | B1
1.83 OD405 | B2
1.99 OD405 | B3
1.8 OD405 | B4
2.09 OD405 | B5
1.82 OD405 | B6
1.69 OD405 | B7
1.96 OD405 | B8
1.51 OD405 | B9
2.14 OD405 | B10
0.98 OD405 | B11
1.97 OD405 | B12
1.79 OD405 | B13
1.82 OD405 | B14
2.01 OD405 | B15
1.46 OD405 | B16
1.8 OD405 | B17
2 OD405 | B18
1.84 OD405 | B19
1.82 OD405 | B20
1.57 OD405 | B21
1.97 OD405 | B22
1.64 OD405 | B23
1.77 OD405 | B24
